In patent US20200316163A1 (APELLIS PHARMACEUTICALS, published 2020):
Blank lines part the entries; values can stand above or below the binder they belong to.

What was measured:
Assay in all cases: cell-based or functional assay
[1] = target: T1, human complement component C3 (human, UniProt P01024 23-1663)
[2] = target: T1, human complement component C3; remark: listed apart in the source
[3] = target: T1, human complement component C3; remark: listed apart in the source
[4] = target: T1, human complement component C3; remark: listed apart in the source

B1: (CA28-AEEAc)8-PEG40k (peptide)
peptide: ICVWQDWGAHRCTK
modifications: N-terminal acetyl; 1-methyl-Trp at position 4; disulfide Cys2-Cys12; AEEAc spacer between Thr13 and Lys; C-terminal amide; Lys side chain coupled to an arm of an eight-arm 40 kD PEG (NOF HGEO-400GS)
IC50, classical complement inhibition assay (C3b deposition ELISA, human plasma), as a function of CA28 moiety concentration [1]: 1930 nM
IC50 on a molar basis (corrected for 7.5 CA28 moieties per molecule), classical complement inhibition assay [2]: ~260 nM

B2: CA28-2GS-BF (bifunctionalized PEG-based compstatin analog, GS type) (peptide)
peptide: ICVWQDWGAHRCTK
modifications: not fully specified; N-terminal acetyl; 1-methyl-Trp at position 4; disulfide Cys2-Cys12; AEEAc spacer between Thr13 and Lys; C-terminal amide; Lys side chain coupled to one end of a linear bifunctional 40 kD PEG (glutaryl, GS type; amide plus ester linkage)
% Parent in Q1 (Type III cells with high C3d), modified Ham's test, 50 ug/ml [3]: 0.01%
% Parent in Q2 (Type I and II cells with high C3d), modified Ham's test, 50 ug/ml [3]: 0.01%
% Parent in Q3 (Type III cells without significant C3d), modified Ham's test, 50 ug/ml [3]: 61.5%
% Parent in Q4 (Type I and II cells without significant C3d), modified Ham's test, 50 ug/ml [3]: 38.5%

B7: CA28-AEEAc-Lys(mPEG40K-carbonyl) (peptide)
peptide: ICVWQDWGAHRCTK
modifications: not fully specified; N-terminal acetyl; 1-methyl-Trp at position 4; disulfide Cys2-Cys12; AEEAc spacer between Thr13 and Lys; C-terminal amide; linear 40 kD mPEG (NOF ME-400TS) on the Lys side chain
IC50 (read off the curve), inhibition of classical pathway complement activation (C3b deposition ELISA) [4]: ~600 nM

Continued, values first:

IC50 (read off the curve), inhibition of classical pathway complement activation (C3b deposition ELISA) [4]: ~700 nM
B3: CA28-AEEAc-Lys(mPEG40K-succinyl) (peptide)
peptide: ICVWQDWGAHRCTK
modifications: N-terminal acetyl; 1-methyl-Trp at position 4; disulfide Cys2-Cys12; AEEAc spacer between Thr13 and Lys; C-terminal amide; linear 40 kD mPEG (NOF ME-400CS) on the Lys side chain

IC50 (read off the curve), inhibition of classical pathway complement activation (C3b deposition ELISA) [4]: ~700 nM
B4: CA28-AEEAc-Lys(mPEG40K-hexanoyl) (peptide)
peptide: ICVWQDWGAHRCTK
modifications: N-terminal acetyl; 1-methyl-Trp at position 4; disulfide Cys2-Cys12; AEEAc spacer between Thr13 and Lys; C-terminal amide; linear 40 kD mPEG (NOF ME-400HS) on the Lys side chain

IC50, classical complement inhibition assay (C3b deposition ELISA, human plasma) [1]: 1260 nM
B5: CA28-AEEAc-Lys-(PEG30k) (peptide)
peptide: ICVWQDWGAHRCTK
modifications: not fully specified; N-terminal acetyl; 1-methyl-Trp at position 4; disulfide Cys2-Cys12; AEEAc (8-amino-3,6-dioxaoctanoyl) spacer between Thr13 and Lys; C-terminal amide; linear monofunctional 30 kD PEG (NOF ME-300GS) on the Lys side …

IC50 (read off the curve), inhibition of classical pathway complement activation (C3b deposition ELISA) [4]: ~600 nM
IC50, classical complement inhibition assay (C3b deposition ELISA, human plasma) [1]: 1290 nM
B6: CA28-AEEAc-Lys-(PEG40k) (peptide)
peptide: ICVWQDWGAHRCTK
modifications: not fully specified; N-terminal acetyl; 1-methyl-Trp at position 4; disulfide Cys2-Cys12; AEEAc spacer between Thr13 and Lys; C-terminal amide; linear monofunctional 40 kD mPEG (NOF ME-400GS) on the Lys side chain
